# T1: human PRLR (Biacore antigen) (human, UniProt P16471 25-234, limits assumed)
# T1 construct: The construct injected over captured antibody is not described (a soluble form is likely); also called huPRLR
# T1 sequence: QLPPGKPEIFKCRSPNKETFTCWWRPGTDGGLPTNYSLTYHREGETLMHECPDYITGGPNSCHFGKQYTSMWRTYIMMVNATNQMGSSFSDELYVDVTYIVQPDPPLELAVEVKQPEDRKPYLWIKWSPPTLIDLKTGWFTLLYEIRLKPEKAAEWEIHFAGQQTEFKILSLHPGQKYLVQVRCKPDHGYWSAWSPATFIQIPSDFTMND
# T2: rat PRLR on Nb2-11 rat lymphoma cells (rat, UniProt P05710 20-610)
# T2 construct: whole, on cells
# T2 sequence (looked up): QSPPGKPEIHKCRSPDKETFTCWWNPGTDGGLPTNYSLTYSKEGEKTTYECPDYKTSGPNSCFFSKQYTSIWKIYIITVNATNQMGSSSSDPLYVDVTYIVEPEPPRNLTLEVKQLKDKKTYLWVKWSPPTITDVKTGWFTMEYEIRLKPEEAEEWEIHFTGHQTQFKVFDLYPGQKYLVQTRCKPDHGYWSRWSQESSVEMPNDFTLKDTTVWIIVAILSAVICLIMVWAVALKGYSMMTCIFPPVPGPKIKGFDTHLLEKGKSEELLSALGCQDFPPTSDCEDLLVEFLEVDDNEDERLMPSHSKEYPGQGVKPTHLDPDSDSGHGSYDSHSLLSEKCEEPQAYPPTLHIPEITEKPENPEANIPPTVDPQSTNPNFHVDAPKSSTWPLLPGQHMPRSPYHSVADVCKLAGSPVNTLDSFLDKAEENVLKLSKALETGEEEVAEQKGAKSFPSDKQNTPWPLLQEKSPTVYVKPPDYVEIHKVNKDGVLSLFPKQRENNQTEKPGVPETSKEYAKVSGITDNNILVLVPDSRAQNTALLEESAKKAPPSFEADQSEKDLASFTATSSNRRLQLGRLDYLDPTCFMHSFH
# B1: Ab39 (antibody, human IgG1, kappa, V domains shown)
# VH: EVQLVQSGAEVKKPGSSVKVSCKASGYTFTSYWIHWVRQAPGQGLEWIGEIDPSDSYTNYNQKFKGRATLTVDKSSSTAYMELSSLRSEDTAVYYCARSFFTNWFAYWGQGTLVTVSS
# VL: DVVMTQTPLSLSVTPGQPASISCRSSQSLVHSNGNTYLHWYLQKPGQSPQLLIYKVSNRFSGVPDRFSGSGSGTDFTLKISRVEAEDVGVYFCSQSTHVPFTFGGGTKVEIKR
# notes: humanized from Ab7; G1; also called Ab4 HC.1a and Ab4 LC.1a
# B2: Ab6 (antibody, V domains shown)
# VH: QVQLQQPGAELVMPGSSVKLSCKASGYTFTTYWMHWVKQRPGQGLEWIGEIDPSDSYSNYNQKFKDKATLTVDKSSSTAYMQLSSLTSEDSAVYYCARNGGLGPAWFSYWGQGTLVTVSA
# VL: DIVMTQSQKFMSTTVGDRVSITCKASQYVGTAVAWYQQKPGQSPKLLIYSASNRYTGVPDRFTDSGSGTDFTLTISNLQSEDLADYFCQQYSSYPWTFGGGTKLEIK
# notes: murine monoclonal, isotype G1; also called murine Ab6
# B3: Ab5 (antibody, V domains shown)
# VH: QVQLQQPGAELVRPGTSVKLSCKASGYTFTSFWMHWVKQRPGQGLEWIGVIDPSDTYTNYNQKFKGKATLTVDTSSSTAYMQLSSLTSEDSAVYYCARGDYSNWFTYWGQGTLVTVSA
# VL: DVVMTQTPLSLPVSLGDQASISCRSSQRLVHSNGNTYLHWYLQKPGQSPKLLIYKVSNRFSGVPDRFSGSGSGTDFTLKISRVEAEDLGVYFCSQSTHVPWTFGGGTKLEIK
# notes: murine monoclonal, isotype G2a; also called murine Ab5
# B4: Ab13 (antibody, V domains shown)
# VH: QVQLQQPGAELVRPGTSVKLSCKASGYTFTSFWMHWVKQRPGQGLEWIGVIDPSDSHTNYNQKFKGKATLTVNTSSSTAYMHLSSLTSEDSAVYYCARGDYSNWFTYWGQGTLVTVSA
# VL: DVVMTQTPFSLPVSLGDQASISCRSSQSLVHSNGNTYLHWYLQKPGQSPKLLIYKVSNRFSGVPDRFSGSGSGTDFTLKISRVEAEDLELYFCSQSTHVPWTFGGGTKLEIK
# notes: murine monoclonal, isotype G2a; also called murine Ab13
# B5: Ab7 (antibody, V domains shown)
# VH: QVQLQQPGAELVMPGTSVKLSCKASGYTFTSYWIHWVKQRPGQGLEWIGEIDPSDSYTNYNQKFKGKATLTVDRSSSTAYMQLSSLTSEDSAVYYCGRSFFTNWFAYWGQGTLVTVSA
# VL: DVVMTQTPLSLPVSLGDQASISCRSSQSLVHSNGNTYLHWYLQKPGQSPKLLIYKVSNRFSGVPDRFSGSGSGTDFTLKINRVEAEDLGVYFCSQSTHVPFTFGSGTKLEIK
# notes: murine monoclonal, isotype G1; also called murine Ab7
# B6: LFA102 (antibody, human IgG1, kappa, V domains shown)
# VH: EVQLVESGGGLVQPGGSLRLSCAVSGFTFSSYGMSWVRQAPGKRLEWVATVSSGGTYTYYPDSVKGRFTISRDNSKNTLYLQMNSLRAEDTAMYYCARHRGNYYATYYYAMDYWGQGTLVTVSS
# VL: DIVLTQSPDSLAVSLGERATINCKASKSVSTSGYTYMHWYQQKPGQPPKLLIYLASNRESGVPDRFSGSGSGTDFTLTISPVQAEDVATYYCQHSGELPPSFGQGTKLEIKR
# notes: humanized IgG1 kappa comparator (WO 2008022295)
# B7: Ab10 (antibody, V domains shown)
# VH: EVQLHQSGPELVKPGASVKISCKASGYTFTDYNMHWMKQSHGKSLEWIGYFYPYNGGTGYNQEFKNKATLTVDISSSTAYMELRRLTSEDSAVYYCARGGWGIYYAMDYWGQGTSVTVSS
# VL: DIQMTQSPASLSASVGETVTITCRASENIYSYLTWYQQKQGKSPQLLVYNAKTLAEGVPSRFSGSGSGTQFSLKINSLQPEDFGSYHCQHHSVTPLTFGAGTKLELK
# notes: murine monoclonal, isotype G2a; also called murine Ab10
# B8: Ab11 (antibody, V domains shown)
# VH: EVKLVESGGGLVQPGGSLKLSCAASGFTFSDYYMFWVRQTPEKSLEWVAYISNGGGSTYYPDTVKGRFTISRDNAKNTLYLQMSRLKSEDTAMYYCSRQLFYYGSRGAMGYWGQGTSVTVSS
# VL: DVLMTQTPLSLPVSLGDQASISCRSSQSIVHSNGNTYLEWYLQKPGQSPKLLIYKVSNRFSGVPDRFSGSGSGTDFTLKISRVEAEDLGVYYCFQGSHVPFTFGSGTKLEIK
# notes: murine monoclonal, isotype G1; also called murine Ab11
# B9: Ab12 (antibody, V domains shown)
# VH: DVQLQESGPGLVKPSQSLSLTCTVTGYSITSDYAWNWIRQFPGNKLEWMGYIGYSGRTSFNPSLKSRISITRDTSKNQFFLQLNSVTTEDTATYYCARGGFAMDYWGQGTSVTVSS
# VL: QIVLTQSPGIMSASPGEKVTMTCSASSSVTYMYWYQQKPRSSPKPWIYLTSNLASGVPARFSGSGSGTSYSLTISSMEAEDGATYYCQQWSSTPPLTFGGGTKLELN
# notes: murine monoclonal, isotype G2a; reported as PRLR agonist; also called murine Ab12
# Biological target: T1, human PRLR (Biacore antigen)
# Test: SPR Biacore
row,Binder,fold decrease in affinity against chAb7
1,B1,~22 fold

# Biological target: T2, rat PRLR on Nb2-11 rat lymphoma cells
# Test: FACS Nb2-11 20 ug/mL
# Description: Nb2-11 and Baf3-xPRLR cells were resuspended in FACS buffer (PBS+1% FBS) at 2 millions cells/mL. Cells were added to round bottom 96-well plate (100 uL/well) and treated with testing PRLR antibodies for 1 hr at 4 C. Cells were then washed with FACS buffer twice and incubated with 2nd antibody conjugated to ALEXA488 (Invitrogen) for 1 hr at 4 C. After two washes in FACS buffer, cells were resuspended in 1% formaldehyde in PBS. Cells were analyzed using LSRII flowcytometer.
row,Binder,FACS GeoMean-neg
1,B2,0
2,B3,90
3,B4,60
4,B5,82
5,B6,98
6,B7,16
7,B8,94
8,B9,17

# Reference: patent US20170022281A1 (AbbVie / Abbott, published 2017)
